Measured values taken from article doi:10.1101/2021.06.28.450235.

Biological target: CaCl2-washed photosystem II complex (T. elongatus | T. elongatus (endogenous)) (UniProt Q8DIF8)
Experiment: native gel or EMSA

stoichiometry N: 2
Substance: CaCl2-washed photosystem II complex (from UniProt Q8DIF8 1-461; P0A444 1-344; Q8DIQ1 1-510)
